In this data set the test system is T1, Myotis lucifugus helper (Myotis lucifugus).
T1 sequence: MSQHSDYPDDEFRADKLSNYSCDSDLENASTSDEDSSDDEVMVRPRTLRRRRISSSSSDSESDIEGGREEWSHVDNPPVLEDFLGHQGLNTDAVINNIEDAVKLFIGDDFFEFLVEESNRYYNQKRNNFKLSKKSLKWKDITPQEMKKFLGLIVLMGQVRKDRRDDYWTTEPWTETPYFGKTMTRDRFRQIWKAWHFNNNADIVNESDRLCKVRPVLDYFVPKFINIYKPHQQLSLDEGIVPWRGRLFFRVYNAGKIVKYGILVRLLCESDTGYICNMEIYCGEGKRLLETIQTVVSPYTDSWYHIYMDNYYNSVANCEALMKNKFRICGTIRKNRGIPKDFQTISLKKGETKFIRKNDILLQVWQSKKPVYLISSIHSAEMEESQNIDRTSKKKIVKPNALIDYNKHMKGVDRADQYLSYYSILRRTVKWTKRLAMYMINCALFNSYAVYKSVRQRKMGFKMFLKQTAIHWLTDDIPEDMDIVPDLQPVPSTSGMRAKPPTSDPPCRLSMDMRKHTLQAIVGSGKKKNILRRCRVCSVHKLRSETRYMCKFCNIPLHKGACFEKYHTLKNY
Kind of data set: cell_activity. As to conditions: HEK293, GFP+ cells day 21 relative to day 2; indirect evidence of end recognition.

In the case of “Myotis lucifugus donor ends (left/right)”, the activity (% integration efficiency) worked out at 3.5.

The values above are taken from US20240002818.
